According to US20230302124:

Molecular target: T1, simplified alpha-carboxysome shell of CsoS1A and CsoS4A-SII
T1 chain 1: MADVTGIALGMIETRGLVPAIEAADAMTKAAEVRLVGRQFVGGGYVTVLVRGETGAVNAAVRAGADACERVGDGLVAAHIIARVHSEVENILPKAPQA
T1 chain 2: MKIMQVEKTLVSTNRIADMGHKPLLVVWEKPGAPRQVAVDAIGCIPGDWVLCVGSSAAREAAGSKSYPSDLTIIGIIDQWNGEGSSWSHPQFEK

B1: His6-APEX2-S2CP(30) (protein)
chain: HHHHHHMGSSHHHHHHSSGMGKSYPTVSADYQDAVEKAKKKLRGFIAEKRCAPLMLRLAFHSAGTFDKGTKTGGPFGTIKHPAELAHSANNGLDIAVRLLEPLKAEFPILSYADFYQLAGVVAVEVTGGPKVPFHPGREDKPEPPPEGRLPDPTKGSDHLRDVFGKAMGLTDQDIVALSGGHTIGAAHKERSGFEGPWTSNPLIFDNSYFTELLSGEKEGLLQLPSDKALLSDPVFRPLVDKYAADEDAFFADYAEAHQKLSELGFADAGSSKPEKPGSKITGSSGNDTQGSLITYSGGARG
Average enzyme copy number per shell (T = 3) (copies per shell): 11
Average enzyme copy number per shell (T = 4) (copies per shell): 14.6
